Patent US20190160148A1, “COMBINATION OF PEMBROLIZUMAB AND ABEMACICLIB FOR THE TREATMENT OF CANCER” (Eli Lilly and Company, priority 2016, published 2019)

How the values were obtained:
CT26 syngeneic tumors = experiment: CT26 syngeneic tumor growth, concurrent dosing; format: in vivo, Balb/C mice; conditions: day 24; abemaciclib 50 mg/kg for 21 days; 178G7 500 μg/dose 1 time per week, 3 doses; versus vehicle
Text: CT26 is also a well-known model for immunotherapy. Studies have shown it to be sensitive to inhibitors of a co-inhibitory immune checkpoint including, CTLA-4, PD-1, PD-L1 blockade. Established sensitivity of CT26, and well known range of therapeutic efficacy of immunotherapeutic intervention make it an appropriate model for screening the activity of checkpoint immunotherapies (Grosso and Jure-Kunkel, Cancer Immunity Vol. 13, p. 5, January 2013) (Duraiswamy et al, Cancer Research, Jun. 15, 2013 73; 3591).
CT26 is a murine model, and accordingly, antibodies used in the CT26 model must bind the mouse target protein. […]
Relative changes in tumor volume compared to control are analyzed at day 24, at the point where the most animals remained in all groups for proper statistical comparison. Relative changes in tumor volume (% ΔT/C) are calculated using the formula % ΔT/C=100×ΔT/ΔC, whereby T=mean tumor volume of the compound treated group, ΔT=mean tumor volume of the compound treated group minus the mean tumor volume on the baseline day, C=mean tumor volume of the control (vehicle) group, and ΔC=mean tumor volume of the control group minus the mean tumor volume on the baseline day. […]

PD-L1/PD-1 interaction = PD-L1/PD-1 interaction (Mus musculus, UniProt Q9EP73); experiment: Blockade of PD-1 binding to PD-L1; conditions: anti-murine PD-L1 clone
Text: CT26 is a murine model, and accordingly, antibodies used in the CT26 model must bind the mouse target protein. To model co-inhibitory immune checkpoint therapy, in particular blockade of PD-L1/PD-1 mediated inhibition, anti-murine PD-L1 clone, 178G7 (Known herein in the examples as: anti-PD-L1 antibody or anti-PD-L1 therapy or anti-PD-L1), is produced. The HC of 178G7 is SEQ ID NO: 11, and the LC of 178G7 is SEQ ID NO: 12. […] In particular, 178G7 is used as a a surrogate agents that prevent PD-1 mediated inhibition by PD-L1. as both 178G7 and pembrolizumab block the interaction of PD-1 and PD-L1. 178G7 competes with previously identified surrogate antibody 10F.9G2 known to block PD-L1/PD-1 interaction and is a known surrogate for anti-human antibodies in the clinic (Eppihimer et al. Microcirculation 2002:9(2):133).

PD-L1/PD-1 interaction, sequence (Q9EP73 19-290): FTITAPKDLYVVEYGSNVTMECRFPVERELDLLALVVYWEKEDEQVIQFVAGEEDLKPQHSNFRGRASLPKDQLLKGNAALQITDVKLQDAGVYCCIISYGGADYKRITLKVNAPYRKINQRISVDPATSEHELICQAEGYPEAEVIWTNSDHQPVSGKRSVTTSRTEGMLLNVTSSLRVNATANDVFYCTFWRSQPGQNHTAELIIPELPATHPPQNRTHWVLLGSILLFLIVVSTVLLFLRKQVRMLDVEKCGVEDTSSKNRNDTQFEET

Molecule: CCN1CCN(Cc2ccc(Nc3ncc(F)c(-c4cc(F)c5nc(C)n(C(C)C)c5c4)n3)nc2)CC1 [abemaciclib, [5-(4-ethyl-piperazin-1-ylmethyl)-pyridin-2-yl]-[5-fluoro-4-(7-fluoro-3-isopropyl-2-methyl-3H-benzoimidazol-5-yl)-pyrimidin-2-yl]-amine]
- %T/C (relative change in tumor volume compared to control) (CT26 syngeneic tumors): 22.3%

B1: Anti-PD-L1 antibody: anti-murine PD-L1 clone 178G7, HC SEQ ID NO: 11, LC SEQ ID NO: 12; surrogate that blocks PD-1/PD-L1 interaction (antibody)
heavy: QVQLQQSGADLAKPGSSVKISCKASGYNFNSYYINWIKQTTGQGLEYIGYINTVSGTTKYSEKFKGKATLTVDKSSSTAFMQLSSLTPDDSAVYYCARGTIVLDDYWGQGVKVTVSSAETTAPSVYPLAPGTALKSNSMVTLGCLVKGYFPEPVTVTWNSGALSSGVHTFPAVLQSGLYTLTSSVTVPSSTWPSQTVTCNVAHPASSTKVDKKIVPRNCGGDCKPCICTGSEVSSVFIFPSKPKDVLTITLTPKVTCVVVDISQDDPEVHFSWFVDDVEVHTAQTRPPEEQFNSTFRSVSELPILHQDWLNGRTFRCKVTSAAFPSPIEKTISKPEGRTQVPHVYTMSPTKEEMTQNEVSITCMVKGFYPPDIYVEWQMNGQPQENYKNTPPTMDTDGSYFLYSKLNVKKEKWQQGNTFTCSVLHEGLHNHHTEKSLSHSPGK
light: DIVMTQTPSSQAVSAGEKVTMSCKSSQSLLYNEKKKNYLAWYQQKPGQSPKLLIYWASTRESGVPDRFLGSGSGTDFTLTINSVQAEDLAVYYCQQSYDFPRTFGGGTKLELKRADAAPTVSIFPPSTEQLATGGASVVCLMNNFYPRDISVKWKIDGTERRDGVLDSVTDQDSKDSTYSMSSTLSLTKADYESHNLYTCEVVHKTSSSPVVKSFNRNEC
- blocking of PD-1 binding to PD-L1 (PD-L1/PD-1 interaction): blocks PD-1 binding to PD-L1
- %T/C (relative change in tumor volume compared to control) (CT26 syngeneic tumors): 56.1%
